The assay concerns the target T1, human progastrin (full length, recombinant, produced in E. coli, tag removed) (human).
T1 construct: also called hPG; PG
T1 chain: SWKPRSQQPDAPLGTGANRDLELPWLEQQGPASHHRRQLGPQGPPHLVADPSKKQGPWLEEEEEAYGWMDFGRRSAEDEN
The experiment in a line: epitope mapping (details not given).

Data on four molecules can be found in patent publication US20200200751A1 (ECS PROGASTRIN, published 2020).

B1: mAb3 (hybridoma 6B51311C10) (antibody, V domains shown)
VH: EVQLQQSGTVLARPGASVKMSCKASGYIFTSYWVHWVKQRPGQGLEWIGGFYPGNSDSRYNQKFKGKATLTAVTSASTAYMDLSSLTNEDSAVYFCTRRDSPQYWGQGTTLTVSS
VL: DVLMTQTPLSLPVSLGDQASISCRSSQSIVHSNGNTYLEWYLQKPGQSPKLLIYKVSNRFSGVPDRFSGSGSGTDFTLKISRLEAEDLGVYYCFQGSHVPFTFGGGTKLEIK
notes: Murine variable domains (mVH 3 / mVL 3) of the hybridoma antibody
As to B1, the binding result is listed as “binds”.

B2: mAb4 (hybridoma 20D2C3G2) (antibody, V domains shown)
VH: QVQLQQSGAELMKPGASVKISCKATGYTFSSSWIEWLKQRPGHGLEWIGEFLPGSGSTDYNEKFKGKATFTADTSSDTAYMLLSSLTSEDSAVYYCATDGNYDWFAYWGQGTLVTVSA
VL: DLVMTQTPLSLPVSLGDQASISCRSSQSLVHSSGVTYLHWYLQKPGQSPKLLIYKVSNRFSGVPDRFSGSGSGTDFTLKISRVEAEDLGVYFCSQSTHVPPTFGSGTKLEIK
notes: Murine variable domains (mVH 4 / mVL 4)
Regarding B2, the binding result is given as “binds”.

B3: mAb13 (hybridoma 2C6C3C7) (antibody, V domains shown)
VH: EVQLVESGGGLVQPGGSLKLSCAASGFIFSSYGMSWVRQSPDRRLELVASINTFGDRTYYPDSVKGRFTISRDNAKNTLYLQMTSLKSEDTAIYYCARGTGTYWGQGTTLTVSS
VL: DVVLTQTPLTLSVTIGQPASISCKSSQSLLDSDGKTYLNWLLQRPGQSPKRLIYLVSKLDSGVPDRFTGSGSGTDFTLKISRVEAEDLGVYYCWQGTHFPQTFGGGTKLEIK
notes: Murine variable domains (mVH 13 / mVL 13)
Consider B3, for which the binding result is “binds”.

B4: mAb16 (hybridoma 1E9D9B6) (antibody, V domains shown)
VH: QVQLQQSGAELVKPGASVKLSCKASGYTFTSYYMYWVKQRPGQGLEWIGEINPSNGGTNFNEKFKSKATLTVDKSSSTAYMQLSSLTSEDSAVYYCTRGGYYPFDYWGQGTTLTVSS
VL: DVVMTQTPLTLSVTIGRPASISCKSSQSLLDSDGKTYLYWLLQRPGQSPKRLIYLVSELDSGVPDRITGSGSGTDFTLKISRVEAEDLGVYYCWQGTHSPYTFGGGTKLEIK
notes: Murine variable domains (mVH 16 / mVL 16)
For the molecule B4, the binding result is “binds”.
